Source: the supplement of paper PMC9233669
Variants at the floor of the assay were thinned out.

Assays:
biotinyl-Phe-oxazolone = assay: self-aminoacylation, catalytic enhancement (BFO) (fold over background); higher = more active; k-Seq, kA / k0A0; sequences stand for … in GGGAAUGGAUCCACAUCUACGAAUUC…UUCACUGCAGACUUGACGAAGCUG
How it was run: (§1)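 Mutagenized RNA pools (0.43 μM; 21-nt variable region) were treated with 2–1250 μM of each biotinyl-aminoacyl-oxazolone. Conditions were 50 μL HEPES/NaCl/KCl/MgCl2/CaCl2 buffer, 5% acetonitrile, pH 6.9–7.0, room temperature, 90 minutes. Catalytic enhancement, the median kA relative to the uncatalyzed rate, was derived from streptavidin capture, qPCR and Illumina sequencing.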

biotinyl-Ile-oxazolone = assay: self-aminoacylation, catalytic enhancement (BIO) (fold over background); higher = more active; k-Seq, kA / k0A0; sequences stand for … in GGGAAUGGAUCCACAUCUACGAAUUC…UUCACUGCAGACUUGACGAAGCUG
How it was run: as §1

biotinyl-Met-oxazolone = assay: self-aminoacylation, catalytic enhancement (BMO) (fold over background); higher = more active; k-Seq, kA / k0A0; sequences stand for … in GGGAAUGGAUCCACAUCUACGAAUUC…UUCACUGCAGACUUGACGAAGCUG
How it was run: as §1

biotinyl-Val-oxazolone = assay: self-aminoacylation, catalytic enhancement (BVO) (fold over background); higher = more active; k-Seq, kA / k0A0; sequences stand for … in GGGAAUGGAUCCACAUCUACGAAUUC…UUCACUGCAGACUUGACGAAGCUG
How it was run: as §1

biotinyl-Leu-oxazolone = assay: self-aminoacylation, catalytic enhancement (BLO) (fold over background); higher = more active; k-Seq, kA / k0A0; sequences stand for … in GGGAAUGGAUCCACAUCUACGAAUUC…UUCACUGCAGACUUGACGAAGCUG
How it was run: as §1

biotinyl-Trp-oxazolone = assay: self-aminoacylation, catalytic enhancement (BWO) (fold over background); higher = more active; k-Seq, kA / k0A0; sequences stand for … in GGGAAUGGAUCCACAUCUACGAAUUC…UUCACUGCAGACUUGACGAAGCUG
How it was run: as §1

Row | Sequence | self-aminoacylation (biotinyl-Phe-oxazolone) | self-aminoacylation (biotinyl-Ile-oxazolone) | self-aminoacylation (biotinyl-Met-oxazolone) | self-aminoacylation (biotinyl-Val-oxazolone) | self-aminoacylation (biotinyl-Leu-oxazolone) | self-aminoacylation (biotinyl-Trp-oxazolone)
1 | AUUCACCUUCGUCAUCGGGUG [Fam2.2 aminoacylation ribozyme variant] | 14.9 | 2.12 | 2.3 | 2.38 | 3.28 | 2.79
2 | AUUCACCUUGGUCAUCAGGUG [Fam2.2 aminoacylation ribozyme variant] | 7.28 | 1.7 | 1.9 | 1.39 | 2.49 | 2.15
3 | AUUCACCUUGGUCAUCGGGUA [Fam2.2 aminoacylation ribozyme variant] | 5.21 | 2.5 | 3.09 | 2.98 | 2.64 | 2.75
4 | AUUCACCUUGGUCCUCGGGUG [Fam2.2 aminoacylation ribozyme variant] | 39.2 | 3.53 | 5.93 | 3.67 | 8.12 | 5.17
5 | AUUCACGUACGUCAUCGGGUG [Fam2.2 aminoacylation ribozyme variant] | 79.8 | 6.46 | 12.2 | 6.9 | 12.8 | 9.47
6 | AUUCACGUAGGUAAUCGGGUG [Fam2.2 aminoacylation ribozyme variant] | 23.1 | 2.91 | 3.84 | 3.22 | 5.06 | 4.53
7 | AUUCACGUAGGUCAUCAGGUG [Fam2.2 aminoacylation ribozyme variant] | 5.34 | 1.99 | 2.77 | 2.24 | 2.7 | 2.88
8 | AUUCACGUAGGUCCUCGGGUG [Fam2.2 aminoacylation ribozyme variant] | 64.9 | 5.5 | 9.66 | 5.83 | 12.1 | 8.52
9 | AUUCACUUAGGGCAUCGGGUG [Fam2.2 aminoacylation ribozyme variant] | 24.5 | 2.91 | 3.03 | 2.72 | 3.98 | 3.48
10 | AUUCACUUAGGUCAUCGGGUC [Fam2.2 aminoacylation ribozyme variant] | 0.826 | 1.04 | 1.22 | 1.2 | 0.969 | 1.06
11 | AUUCACUUAGGUCAUCGGUUG [Fam2.2 aminoacylation ribozyme variant] | 0.69 | 0.87 | 0.764 | 0.831 | 0.901 | 0.519
12 | AUUCACUUAGGUCCUCGGGUG [Fam2.2 aminoacylation ribozyme variant] | 35.8 | 3.12 | 4.58 | 2.96 | 6.52 | 4.66
13 | AUUCACUUUGGUCAUCGGGUG [Fam2.2 aminoacylation ribozyme variant] | 65.4 | 4.75 | 8.05 | 4.71 | 9.51 | 7.2
14 | AUUCAGCUAGGCCAUCGGGUG [Fam2.2 aminoacylation ribozyme variant] | 72.1 | 6.95 | 10.1 | 6.97 | 12.4 | 10.1
15 | AUUCAGCUAGGUCAUCGAGUG [Fam2.2 aminoacylation ribozyme variant] | 8.78 | 2.01 | 2.24 | 1.95 | 2.86 | 1.98
16 | AUUCAGCUAGGUCAUCGCGUG [Fam2.2 aminoacylation ribozyme variant] | 54.8 | 4.48 | 6.28 | 5.79 | 6.83 | 5.71
17 | AUUCAGCUAGGUCAUCGGGCG [Fam2.2 aminoacylation ribozyme variant] | 17.5 | 2.48 | 3.2 | 2.79 | 3.92 | 3.83
18 | AUUCAGCUAGGUCAUCGGGGG [Fam2.2 aminoacylation ribozyme variant] | 16.7 | 3.18 | 2.69 | 2.23 | 3.48 | 2.72
19 | AUUCAGCUAGGUCAUCGGGUA [Fam2.2 aminoacylation ribozyme variant] | 29.7 | 3.18 | 3.6 | 3.3 | 3.67 | 2.76
20 | AUUCAGCUUGGUCAUCGGGUG [Fam2.2 aminoacylation ribozyme variant] | 14 | 2.75 | 3.5 | 3.37 | 3.63 | 4.05
21 | AUUCAUCGAGGUCAUCGGGUG [Fam2.2 aminoacylation ribozyme variant] | 83.3 | 7.05 | 12 | 6.97 | 14.9 | 10.1
22 | AUUCAUCUAGGACAUCGGGUG [Fam2.2 aminoacylation ribozyme variant] | 17.3 | 2.75 | 3.39 | 2.74 | 3.59 | 3.07
23 | AUUCAUCUAGGUAAUCGGGUG [Fam2.2 aminoacylation ribozyme variant] | 19.5 | 1.95 | 3.07 | 1.73 | 4.09 | 2.6
24 | AUUCAUCUAGGUCAGCGGGUG [Fam2.2 aminoacylation ribozyme variant] | 25.3 | 3.25 | 4.17 | 3.23 | 5.56 | 4.36
25 | AUUCAUCUAGGUCAUCCGGUG [Fam2.2 aminoacylation ribozyme variant] | 48.9 | 4.53 | 6.61 | 4.65 | 8.6 | 6.87
26 | AUUCAUCUAGGUCAUCGCGUG [Fam2.2 aminoacylation ribozyme variant] | 128 | 7.55 | 14.2 | 7.87 | 18.5 | 11.3

Row | Sequence | self-aminoacylation (biotinyl-Phe-oxazolone) | self-aminoacylation (biotinyl-Ile-oxazolone) | self-aminoacylation (biotinyl-Met-oxazolone) | self-aminoacylation (biotinyl-Val-oxazolone) | self-aminoacylation (biotinyl-Leu-oxazolone) | self-aminoacylation (biotinyl-Trp-oxazolone)
27 | AUUCAUCUAGGUCAUCGGAUG [Fam2.2 aminoacylation ribozyme variant] | 0.576 | 0.962 | 0.879 | 1.04 | 0.802 | 0.846
28 | AUUCAUCUAGGUCAUCGGGAG [Fam2.2 aminoacylation ribozyme variant] | 0.786 | 1.11 | 0.945 | 1.16 | 0.697 | 1.36
29 | AUUCAUCUAGGUCAUCGGGCG [Fam2.2 aminoacylation ribozyme variant] | 14.7 | 2.58 | 3.33 | 2.71 | 3.27 | 2.66
30 | AUUCAUCUAGGUCAUCGGGUA [Fam2.2 aminoacylation ribozyme variant] | 4.63 | 3.09 | 4.18 | 3.46 | 5.18 | 5.53
31 | AUUCAUCUAGGUCAUCGGGUU [Fam2.2 aminoacylation ribozyme variant] | 3.41 | 2.22 | 2.46 | 2.03 | 2.81 | 2.36
32 | AUUCAUCUAGGUCAUCUGGUG [Fam2.2 aminoacylation ribozyme variant] | 18.8 | 2.1 | 3.4 | 2.16 | 4.25 | 2.86
33 | AUUCAUCUAGGUCAUGGGGUG [Fam2.2 aminoacylation ribozyme variant] | 37 | 3.26 | 4.98 | 3.14 | 6.73 | 4.54
34 | AUUCAUCUAGGUCCUCGGGUG [Fam2.2 aminoacylation ribozyme variant] | 49.6 | 4 | 5.21 | 3.9 | 8.62 | 5.66
35 | AUUCAUCUAGGUCUUCGGGUG [Fam2.2 aminoacylation ribozyme variant] | 37.4 | 3.75 | 4.49 | 3.66 | 6.24 | 4.84
36 | AUUCAUCUCGGUCAUCGGGUG [Fam2.2 aminoacylation ribozyme variant] | 49.8 | 4.65 | 6.97 | 4.55 | 9.9 | 6.85
37 | AUUCCCCGAGGUCAUCGGGUG [Fam2.2 aminoacylation ribozyme variant] | 188 | 12.5 | 22.7 | 14 | 29.9 | 20.2
38 | AUUCCCCUAGGACAUCGGGUG [Fam2.2 aminoacylation ribozyme variant] | 44.8 | 6.12 | 7.14 | 6.82 | 9.47 | 8.25
39 | AUUCCCCUAGGCCAUCGGGUG [Fam2.2 aminoacylation ribozyme variant] | 119 | 8.31 | 13.6 | 9.59 | 19.3 | 12.5
40 | AUUCCCCUAGGUCAACGGGUG [Fam2.2 aminoacylation ribozyme variant] | 84.2 | 6.94 | 11.5 | 6.99 | 15.4 | 11.5
41 | AUUCCCCUAGGUCAGCGGGUG [Fam2.2 aminoacylation ribozyme variant] | 61.3 | 8.05 | 11.1 | 7.83 | 14.1 | 11
42 | AUUCCCCUAGGUCAUCAGGUG [Fam2.2 aminoacylation ribozyme variant] | 29.4 | 6.44 | 8.46 | 6.96 | 8.19 | 7.46
43 | AUUCCCCUAGGUCAUCGGGAG [Fam2.2 aminoacylation ribozyme variant] | 19.4 | 6.89 | 8.27 | 6.76 | 9.02 | 8.9
44 | AUUCCCCUAGGUCAUCGGGCG [Fam2.2 aminoacylation ribozyme variant] | 81.8 | 9.9 | 15.7 | 11.3 | 13.5 | 9.17
45 | AUUCCCCUAGGUGAUCGGGUG [Fam2.2 aminoacylation ribozyme variant] | 47.7 | 7.9 | 10.9 | 7.89 | 11.8 | 10.8
46 | AUUCCCCUGAUCAUCGAGUGA [Fam2.1 aminoacylation ribozyme variant] | 8.85 | 3.81 | 6.39 | 4.2 | 5.83 | 7.4
47 | AUUCCCCUGGGUCAUCGGGUG [Fam2.2 aminoacylation ribozyme variant] | 107 | 8.62 | 12.2 | 9.66 | 16.9 | 13.3
48 | AUUCCCCUGGUAAUCGAGUGA [Fam2.1 aminoacylation ribozyme variant] | 37.7 | 3.09 | 6.36 | 3.28 | 5.9 | 7.35
49 | AUUCCCCUGGUCAACGAGUGA [Fam2.1 aminoacylation ribozyme variant] | 49.5 | 4.6 | 8.04 | 4.67 | 7.82 | 8.98
50 | AUUCCCCUGGUCAUCGAGGGA [Fam2.1 aminoacylation ribozyme variant] | 1.62 | 1.42 | 1.29 | 1.55 | 1.56 | 1.99
51 | AUUCCCUUGGUCAUCGAGUGA [Fam2.1 aminoacylation ribozyme variant] | 71.8 | 6.22 | 11.8 | 6.58 | 12.3 | 14.7
